Target: NarXS1 (NarX periplasmic sensor domain, residues 38 - 151) (Escherichia coli K-12) (UniProt P0AFA2)
Test: crystal structure

- stoichiometry N: 2
Substance: NarXS1 (NarX periplasmic sensor domain, residues 38 - 151) (from UniProt P0AFA2 38-151) (domain or fragment)
